Measurements: publication doi:10.1101/2024.12.23.630085, “Accurate sequence-to-affinity models for SH2 domains from multi-round peptide binding assays coupled with free-energy regression” (bioRxiv, 2025)
Non-standard residues stand in square brackets, D forms with d. *: point of attachment. FITC = O=C1OC2(c3ccc(O)cc3Oc3cc(O)ccc32)c2ccc(NC(=S)*)cc21; pY = N[C@@H](Cc1ccc(OP(=O)(O)O)cc1)C(=O)O; Ahx = NCCCCCC(=O)O

Columns and labels:
Settings in all cases: both partners purified
Fyn SH2 domain (142-248) = target: T1, Fyn SH2 domain (142-248) (human, UniProt P06241 142-248, biotin (on the AviTag)); test: fluorescence polarisation; competition mode; unlabelled phosphopeptide against 0.4 nM FITC-Ahx-GDG-pY-EEISPLLL-NH2 and 4.125 nM Fyn SH2, as printed (Tables S3 and S5)
T1 construct: SH2 domain of human Fyn kinase, residues 142-248; source: E. coli C43(DE3) with BirA helper plasmid, purified (HisTrap, anion exchange, Ulp1 cleavage, SEC); not shown: His6-SUMO, N-terminal, cleaved; AviTag, C-terminal, kept
T1 sequence (P06241 142-248): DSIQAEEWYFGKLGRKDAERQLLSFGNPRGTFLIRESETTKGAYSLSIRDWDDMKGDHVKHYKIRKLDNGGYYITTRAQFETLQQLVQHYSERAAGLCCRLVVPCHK

Grb2 SH2 domain = target: T2, Grb2 SH2 domain (UniProt P62993 60-152, biotin (biotinylated SH2 domain of the selection)); test: fluorescence polarisation; competition mode; unlabelled phosphopeptide against 30 nM FITC-Ahx-FDDPS(pY)VNVQN and 123 nM Grb2 SH2 (Table S3)
T2 construct: SH2 domain of the adapter protein Grb2; source: purified
T2 sequence (P62993 60-152): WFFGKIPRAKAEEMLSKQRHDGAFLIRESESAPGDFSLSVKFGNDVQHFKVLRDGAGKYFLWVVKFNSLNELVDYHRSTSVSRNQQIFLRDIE

Lyn SH2 domain (121-228) = target: T3, Lyn SH2 domain (121-228) (human, UniProt P07948 121-228, biotin (on the AviTag)); test: fluorescence polarisation; competition mode; unlabelled phosphopeptide against 30 nM FITC-Ahx-GDG-pY-EEISPLLL-NH2 and 106.5 nM Lyn SH2 (Table S3)
T3 construct: source: E. coli C43(DE3) with BirA helper plasmid, purified (HisTrap, anion exchange, Ulp1 cleavage, SEC); not shown: His6-SUMO, N-terminal, cleaved; AviTag, C-terminal, kept
T3 sequence (P07948 121-228): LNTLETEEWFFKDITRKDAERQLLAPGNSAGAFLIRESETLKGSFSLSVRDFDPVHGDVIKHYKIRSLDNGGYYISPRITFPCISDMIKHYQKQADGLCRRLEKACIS

c-Src SH2 domain = target: T4, c-Src SH2 domain (UniProt P12931-1 151-248, biotin (biotinylated SH2 domain of the selection)); test: fluorescence polarisation; competition mode; unlabelled phosphopeptide against 30 nM FITC-Ahx-GDG-pY-EEISPLLL-NH2 and 122.745 nM c-Src SH2 (123.745 to 125.745 in three rows; Table S3)
T4 construct: SH2 domain of c-Src kinase; source: purified

B1: CLIP2 pY972 (peptide)
peptide: Ac-QSDQRR[pY]SLIDRG-NH2
SMILES: CC[C@H](C)[C@H](NC(=O)[C@H](CC(C)C)NC(=O)[C@H](CO)NC(=O)[C@H](Cc1ccc(OP(=O)(O)O)cc1)NC(=O)[C@H](CCCNC(=N)N)NC(=O)[C@H](CCCNC(=N)N)NC(=O)[C@H](CCC(N)=O)NC(=O)[C@H](CC(=O)O)NC(=O)[C@H](CO)NC(=O)[C@H](CCC(N)=O)NC(C)=O)C(=O)N[C@@H](CC(=O)O)C(=O)N[C@@H](CCCNC(=N)N)C(=O)NCC(N)=O
notes: flank added to the 11-residue stretch (surmised: last residue of the library's constant GQSGQ); CLIP2, human, around pY972; flank added to the 11-residue stretch (surmised: first residue of the library's constant GGQSG); source: synthetic peptide (SynPeptide, China)
Kd (Fyn SH2 domain (142-248)): 0.0785 µM

B2: CLIP2 pY972 R977P (peptide)
peptide: Ac-QSDQRR[pY]SLIDPG-NH2
SMILES: CC[C@H](C)[C@H](NC(=O)[C@H](CC(C)C)NC(=O)[C@H](CO)NC(=O)[C@H](Cc1ccc(OP(=O)(O)O)cc1)NC(=O)[C@H](CCCNC(=N)N)NC(=O)[C@H](CCCNC(=N)N)NC(=O)[C@H](CCC(N)=O)NC(=O)[C@H](CC(=O)O)NC(=O)[C@H](CO)NC(=O)[C@H](CCC(N)=O)NC(C)=O)C(=O)N[C@@H](CC(=O)O)C(=O)N1CCC[C@H]1C(=O)NCC(N)=O
notes: flank added to the 11-residue stretch (surmised: last residue of the library's constant GQSGQ); CLIP2, human, around pY972, natural variant R977P; flank added to the 11-residue stretch (surmised: first residue of the library's constant GGQSG); source: synthetic peptide (SynPeptide, China)
Kd (Fyn SH2 domain (142-248)): 0.027 µM

B3: ACTB pY240 (peptide)
peptide: Ac-QSLEKS[pY]ELPDGG-NH2
SMILES: CC(=O)N[C@@H](CCC(N)=O)C(=O)N[C@@H](CO)C(=O)N[C@@H](CC(C)C)C(=O)N[C@@H](CCC(=O)O)C(=O)N[C@@H](CCCCN)C(=O)N[C@@H](CO)C(=O)N[C@@H](Cc1ccc(OP(=O)(O)O)cc1)C(=O)N[C@@H](CCC(=O)O)C(=O)N[C@@H](CC(C)C)C(=O)N1CCC[C@H]1C(=O)N[C@@H](CC(=O)O)C(=O)NCC(=O)NCC(N)=O
notes: flank added to the 11-residue stretch (surmised: last residue of the library's constant GQSGQ); ACTB, human, around pY240; flank added to the 11-residue stretch (surmised: first residue of the library's constant GGQSG); source: synthetic peptide (SynPeptide, China)
Kd (Fyn SH2 domain (142-248)): 0.159 µM

B4: ACTB pY240 P243L (peptide)
peptide: Ac-QSLEKS[pY]ELLDGG-NH2
SMILES: CC(=O)N[C@@H](CCC(N)=O)C(=O)N[C@@H](CO)C(=O)N[C@@H](CC(C)C)C(=O)N[C@@H](CCC(=O)O)C(=O)N[C@@H](CCCCN)C(=O)N[C@@H](CO)C(=O)N[C@@H](Cc1ccc(OP(=O)(O)O)cc1)C(=O)N[C@@H](CCC(=O)O)C(=O)N[C@@H](CC(C)C)C(=O)N[C@@H](CC(C)C)C(=O)N[C@@H](CC(=O)O)C(=O)NCC(=O)NCC(N)=O
notes: flank added to the 11-residue stretch (surmised: last residue of the library's constant GQSGQ); ACTB, human, around pY240, natural variant P243L; flank added to the 11-residue stretch (surmised: first residue of the library's constant GGQSG); source: synthetic peptide (SynPeptide, China)
Kd (Fyn SH2 domain (142-248)): 0.141 µM

B5: Syn-F-2 (synthetic) (peptide)
peptide: Ac-QMEKHV[pY]ESVTQG-NH2
SMILES: CSCC[C@H](NC(=O)[C@H](CCC(N)=O)NC(C)=O)C(=O)N[C@@H](CCC(=O)O)C(=O)N[C@@H](CCCCN)C(=O)N[C@@H](Cc1c[nH]cn1)C(=O)N[C@H](C(=O)N[C@@H](Cc1ccc(OP(=O)(O)O)cc1)C(=O)N[C@@H](CCC(=O)O)C(=O)N[C@@H](CO)C(=O)N[C@H](C(=O)N[C@H](C(=O)N[C@@H](CCC(N)=O)C(=O)NCC(N)=O)[C@@H](C)O)C(C)C)C(C)C
notes: source: synthetic peptide (SynPeptide, China)
Kd (Fyn SH2 domain (142-248)): 0.0183 µM

B6: Syn-G2-5 (synthetic) (peptide)
peptide: Ac-QLGHQR[pY]HNITPG-NH2
notes: as for B5
Kd (Grb2 SH2 domain): 0.487 µM

B7: PTPN6 pY564 (peptide)
peptide: Ac-QHKEDV[pY]ENLHTG-NH2
notes: flank added to the 11-residue stretch (surmised: last residue of the library's constant GQSGQ); PTPN6 (SHP1), human, around pY564; flank added to the 11-residue stretch (surmised: first residue of the library's constant GGQSG); also called SHP1 pY564; source: synthetic peptide (SynPeptide, China)
Kd (Lyn SH2 domain (121-228)): 0.943 µM
Kd (c-Src SH2 domain): 0.909 µM

B8: SLAP-130 pY771 (peptide)
peptide: Ac-QNDGEI[pY]DDIADG-NH2
notes: flank added to the 11-residue stretch (surmised: last residue of the library's constant GQSGQ); SLAP-130, human, around pY771; flank added to the 11-residue stretch (surmised: first residue of the library's constant GGQSG); source: synthetic peptide (SynPeptide, China)
Kd (Lyn SH2 domain (121-228)): 0.0968 µM
Kd (c-Src SH2 domain): 0.094 µM

B9: FITC-Ahx-GDG-pY-EEISPLLL-NH2 (peptide)
peptide: {FITC-Ahx}-GDG[pY]EEISPLLL-NH2
SMILES: CC[C@H](C)[C@H](NC(=O)[C@H](CCC(=O)O)NC(=O)[C@H](CCC(=O)O)NC(=O)[C@H](Cc1ccc(OP(=O)(O)O)cc1)NC(=O)CNC(=O)[C@H](CC(=O)O)NC(=O)CNC(=O)CCCCCNC(=S)Nc1ccc2c(c1)C(=O)OC21c2ccc(O)cc2Oc2cc(O)ccc21)C(=O)N[C@@H](CO)C(=O)N1CCC[C@H]1C(=O)N[C@@H](CC(C)C)C(=O)N[C@@H](CC(C)C)C(=O)N[C@@H](CC(C)C)C(N)=O
notes: fluorescent probe, c-Src SH2 consensus peptide; also called c-Src SH2 consensus; source: synthetic peptide (SynPeptide, China)
binding result (Lyn SH2 domain (121-228)): binds
binding result (Fyn SH2 domain (142-248)): binds

B10: SLAP-130 pY595 (peptide)
peptide: Ac-QDDQEV[pY]DDVAEG-NH2
notes: flank added to the 11-residue stretch (surmised: last residue of the library's constant GQSGQ); SLAP-130, human, around pY595; flank added to the 11-residue stretch (surmised: first residue of the library's constant GGQSG); also called SLAP-130 Y595; source: synthetic peptide (SynPeptide, China)
Kd (Lyn SH2 domain (121-228)): 0.24 µM
Kd (c-Src SH2 domain): 0.191 µM

B11: Syn-G2-7 (synthetic) (peptide)
peptide: Ac-QIEVGT[pY]QNPHNG-NH2
notes: as for B5
Kd (Grb2 SH2 domain): 3.24 µM

B12: Syn-G2-6 (synthetic) (peptide)
peptide: Ac-QHRLNN[pY]ENNRLG-NH2
notes: as for B5
Kd (Grb2 SH2 domain): 2.25 µM
